experiment: soluble on expression in E. coli; label from the status in PepcDB or PDB records

Sequence | soluble on expression in E. coli
MSLSNNKQSSTNDGKISIVTSTNVYADIAKNIVGKYGSAKAIIKNSATDPHDFEPTTQDAKELSSTNIIVANGLGYDSWMNKLASSVDKKPVLVGEELMKLKKGANPHIWYSLSMPTEYVDYLVKRLSKIDSKHKAYFEANGKKYLAKINQVKALAKNSKKTDKMVFVSEPVFDYALAEAGYKIGDKDFEKAVENNTDPSPKTINRMTNDIKNKKIAFFVNNTQSSSSTVKTFVKLAKQNNIPVLNVRETIPNHTTYLNWMKENYQNLANISKEGHHHHHH | not soluble
MAHHHHHHMSTRTILTAGEAAEVLASVRYVLLDVDGVLWAGKHVLPNIPETLLYLRLREKQIRFLTNNASISRAGLVREFQRRGIQGVREGEVYNSGFAAALRLQSLFTANKSTGSGRPLVERNIFVIGEEGLHEELRRVLAPGYIAYGMELHDAEKCGGYDAHVVASAWKQRVLPAPLQSSATSCGIAATGHAAGGISISDLSPAAVVVGLDMHFNMLKLAYASLCLQERPAAQTAGTSSSTPTYFIATNEDPQIPVGEDFLLLPGAGGMVSALRTVSGRSPDFVCGKPHVDMAKVFFEAEGITDPQQCLMVGDRLTTDIAFGNAAGCKTMLVLSGAEKMDRVRQAERDGHVSLLPDFIAPSLAIFLPPA | soluble
AMARVGVLGAKGKVGATMVRAVAAADDLTLSAELDAGDPLSLLTDGNTEVVIDFTHPDVVMGNLEFLIDNGIHAVVGTTGFTAERFQQVESWLVAKPNTSVLIAPNFAIGAVLSMHFAKQAARFFDSAEVIELHHPHKADAPSGTAARTAKLIAEARKGLPPNPDATSTSLPGARGADVDGIPVHAVRLAGLVAHQEVLFGTEGETLTIRHDSLDRTSFVPGVLLAVRRIAERPGLTVGLEPLLDLH | soluble
GMKGENMMVKLIALYEQPEDKQAFDEHYFNTHAPLTRKIPGLRDMKVTRIVGSPMGESKFYLMCEMYYDDHESLQQAMRTDEGKASGKDAMKFAGKLLTLMIGEEMDE | soluble
SLLLLQSILITKIMVIQLILFFEYALASGFEDKNILKEGKMMFDTLLKQFLEIDKVISLLYKDFVDNYIDFKNLEIVKIKKENEIENKLKSLLKSENIDYALVVAPEDEDILYNLTKIIESYPVKNLGCSSEAIKIAGNKYLTYLAIKDAVKTPKTFPPKKYVVKKIDSCGGKFNLFDENFLIQEFIDGENLSVSLIVGKKIHPLSLNRQYIDKRGFVGGEVNINHKLKDKIFNEAIKAVKCINGLNGYVGVDVIVNNDGIYIIEINPRITTTIYGLKTNPSLAELLIKNANNEELKFKVKGEKFTIDK | not soluble
MGSDKIHHHHHHMKKLRKIIEINEELCNGCGQCISACAESALALVNGKARVVSDNLCDGLGTCIGECPTGALKIVEREAEEFDAQAVEIARSCPSTRMVMTFTAGTPSSEARPSALSHWPVKIRLIPENAPFLKGADLLVVADCVPVAFSDLHGRFLPGKVVMAGCPKFDEAQPYIEKFAGIFHNAGIRRVTVLTMEVPCCSGLPILVRKGMELAGVRVPMEVAVISTRGEILDKTA | not soluble
GMSNLETAKAMIAAYNAQDVDTYVSYMTDDACEANYRGDVVREGKEGTRSGLAAAFARWPQNHAEIKDAQQVGTYVLMREHVTRGPATDGSPLVEPFDVVAVYSFEGDKCSRVEFIR | soluble
MATSMTDIKGFNMISIEQEKELGNKFAVEIEKQQQPVNDPEVQRYVDKVGKRLLSGARAVEFDYVFKVVKDDSVNAFAIPGGRVYVHTGLLKAADNETELAGVLAHEINHAVARHGTRQMTQEYGYSLVLSLVLGDNPNMLAQLAGQLFGKAGMMSYSREYENQADFLGVETMYKAGYNPNGLTSFFQKLNAMDGGTQSNVARFFSTHPLTSERIQRVQAEIAKLPPQRYLTDETEFKKIKGRLKLEHHHHHH | soluble
MSLATAAPFVSDQAEAKGFVEGSTLDLKLRNYYYNRDRKNNPAPGGRSDKDWTQGIWANFSTGYTQGTIGVAAEAFGYGALRLWGPDKYSGSGNLVTDSNGDNEATQGKFGGAVKFRVSKTELKVGDMQPTSPVFAVGGSRILPQTASGLSLQSSEIAGLDLEAGHFYSGTSQDDTSHNGSIWATYANGFNGLKANSADFLGGKYAITDGLGVAFYAAKLEDIWDQYYGNVNYALPLGNDQSLAFDVNLYRTLDEGSSKADSINNTTYSASAAYSFLAAHTVTVAYQKVDGDTPFDYIGIGDNNRGGDSIFLANSVQYSDFNGPGEKSWQIRYDLNMTPYGVPGLSFMTRYLNGDNIDGTKVDASSLYANMYGADGKHHETNLEAKYVVQAGPAKDLSFRMRQAWHRGNDAQSDGDVNEFRLIVDYPISILKGIITITTDPNSSSVDKLAAALEHHHHHH | soluble
FDASNFKDFSSIASASSSWQNQSGSTMIIQVDSFGNVSGQYVNRAQGTGCQNSPYPLTGRVNGTFIAFSVGWNNSTENCNSATGWTGYAQVNGNNTEIVTSWNLAYEGGSGPAIEQGQDTFQYVPTTENKSLLKD | soluble
MSLSANDVNKDHLQTSIKQCENNGNGQEEGLKNPSKSGTTFYVPWEGSENFLSCQSKNGTPIMMVAYQTVLRDPLPGEEENVHLAARLLAGTVVKPGEVFSQNNKIGPYVIARGFKKGPTYIGTKLTTTIGGGVCKMASTLYNVAILSNLPVVERHAHSMPVPYVPYGQDATVSYGNKDLKFKNDTSSPIMIWAQGVDNILYVAFYSSTKPPEVEWHHEMLKLIKADKVYKMSSTLPKGREKLLMEGMDGAIVKSWVTVKNPDGTVIKRDLRKSYYNPMPHVYEKGKEGHHHHHH | soluble
MGSDKIHHHHHHMMKYIFRTFSCGSGDCIFLILKSGDYTLNLMIDCGKYTEEIDEYVRNSLKNKIDYLIVTHIDNDHINGLIKMLTQNPDLIIEHIIYNCYQRVINNEQPWTEQMKANVDRLYDQLPIVIDMLSQNVNEEKALTLAECILRKEEWRRAWQREYITDESPAIQLANNMGRIIFLSPSQVALDRLDVKYRKLFWQQLYKQKTEDYDGEETIYEALMRIAQLEEGEETKDENVNDDTINEQILKRYASRPLSKMDDNNIASIAFIWEYQGHRILLMGDADPEQVSNAIEKVYKDETKPVIFDLIKVSHHGSAHSTSCGLMDVIDSERFFFTGGGKERPSLQTLGRIIIRPLPNGIAYRDIRYNRPNEILNKLANLSVDEKGSLHIRVNHNENGYEVSC | not soluble
MGEVKDLGMADHGGFDLKIGARVVLEDVKLGDSIAVNGTCLTVTEFNAEEFTVGLAPETLRKTSLEELKKGSPVNLERALQPVSRMGGHVVQGHVDGTGVIESMEVEGDSLWVKVKADKGLLKYIVPKGFVAVDGTSLTVVDVFDEESCFNFMMIAYTQQNVVIPTKKIGQKVNLEVDIMGKYVERLLTSGGFSKGN | soluble
MSKETGKMAEEPPGSSSSAKPVTSSKKPPPNDVTTTTNTTKTTNSNQQEDMYLNGNNPYYGGFYANNRYLFPSTSSQATCIGTSSEDSPPPPPPSANGSIHRKHHQNANHHQNSRHAISDTVAVAGDDLSNVPAAVVIQLEKANRTIASQTLEIERLKSYQNQNLETHLLKKQIHDLEKEVRSGRSRFLEQQELLAEMSREMDILLREKLEMQRNSQELEKKYKKAKFASRELAKILENDLCGTPTTSNLKNFESDDEFFEEKSLFEKSRALSRQQIPNDLLEKTRKIDFSEAKNAKNQDLIDKLIDENENLQISLNREQKMTSSLQDDLEKSRRMVIDRDEHIEELKMKLGKAETKASQCESDLTQTSSDLAMERLRCEVLTGELHEIDGIFRNTQSTIQAYADDNDRLEDQCRQAQRTILTLNSKL | not soluble
SEKADEKTYDLRDPSQLVALFTENENEDFIKISLSKYIESLIQSHNMASYNIVFLYDETRSISRYHSNQIYEAASSATDKKDILLILHSGGGQIEPAYLISKTCKSLTKKKFVVGIPRRAKSAATLISLGADEIHMGLMSELGPIDPQIGGYPALGLSNALNTLAGLACRFPDSADMFAKYLTDNLNLKDLGYFERVSESASQYAERLLAGKKFPAPSTAQSLANHFVNHYKDHGFVIDSDEATNLLGSNIIKQNTAEYLFANELYKFLDFASF | not soluble
MSLVMVVDGSKLVRKLITDVLRRELPEVDVIGCVGIAEARQTLEAGTVDLVTTSLFLPDGDGLALARSVREEAGQAYVPVIVVSGDTQQHLVERRFTEYVTDYFDKALGHEALAAFIRGYVQPEPVSSGTVLYVEDSCVVAEATTRMLERQGLRVVHVLTAEDAFALLTAESLGRTEYRINLVLTDVTLKGELSGCDVVQRIRIDFSYGKRRLPVLVMTGDTNSQNQSELLRAGANDLVQKPIEERLLVTKVLFQLRLARLKDDLATIEGHHHHHH | not soluble

From the DeepSol protein solubility set
